Results reported in patent US20240262906A1 (WELLMARKER BIO, published 2024).

Molecular target: T1, IGSF1 overexpressed on cells (NCI-H292 IGSF1 O/E; HEK293E IGSF1 O/E) (human, UniProt Q8N6C5 581-1336)
T1 construct: Membrane protein expressed from a commercial vector (OriGene RC209621); also called IGSF1 antigen in cells
T1 sequence: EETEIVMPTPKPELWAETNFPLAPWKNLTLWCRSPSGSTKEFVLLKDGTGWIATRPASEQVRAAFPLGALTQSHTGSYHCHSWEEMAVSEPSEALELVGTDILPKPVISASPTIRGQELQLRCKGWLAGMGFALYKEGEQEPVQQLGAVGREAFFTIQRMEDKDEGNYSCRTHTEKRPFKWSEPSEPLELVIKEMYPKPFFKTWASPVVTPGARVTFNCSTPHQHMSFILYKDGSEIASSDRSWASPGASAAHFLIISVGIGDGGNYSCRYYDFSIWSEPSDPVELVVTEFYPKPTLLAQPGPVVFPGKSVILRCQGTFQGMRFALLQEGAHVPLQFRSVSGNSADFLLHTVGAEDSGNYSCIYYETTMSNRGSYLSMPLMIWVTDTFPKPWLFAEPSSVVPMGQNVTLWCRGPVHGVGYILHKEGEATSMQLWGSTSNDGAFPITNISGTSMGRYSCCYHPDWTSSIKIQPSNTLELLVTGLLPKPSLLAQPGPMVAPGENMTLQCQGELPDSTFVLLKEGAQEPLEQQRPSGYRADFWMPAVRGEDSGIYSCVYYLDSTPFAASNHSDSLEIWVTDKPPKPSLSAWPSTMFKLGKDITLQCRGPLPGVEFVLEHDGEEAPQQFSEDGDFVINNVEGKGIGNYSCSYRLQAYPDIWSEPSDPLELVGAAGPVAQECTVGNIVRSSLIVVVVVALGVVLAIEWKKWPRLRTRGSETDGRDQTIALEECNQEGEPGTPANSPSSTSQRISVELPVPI
Test: flow cytometry on NCI-H292 IGSF1 O/E cells, FITC anti-human IgG detection
Method: Specifically, the medium of NCI-H292 IGSF1 O/E cells and NCI-H292 MOCK cells was removed, washed once with PBS, and then treated with 2 ml of 0.25% trypsin-EDTA, and the cells were isolated. The isolated cells were diluted with 8 ml of PBS (hereinafter referred to as FACS buffer) containing 2% FBS and 0.05% sodium azide, and then the supernatant was removed by centrifugation at 1,200 rpm for 1 minute. Then, the cells were resuspended in FACS buffer to 1×10⁵ cells/ml. Thereafter, 1 ml of each was dispensed in a FACS tube, and the supernatant was removed by centrifugation at 1,200 rpm for 1 minute.
After the reaction was completed, 1 ml of FACS buffer was added to each tube, and the supernatant was removed by centrifugation at 1,200 rpm for 1 minute. This process was performed a total of two times. […]
Finally, after removal of the supernatant, the remaining pellet was resuspended in 200 μl of FACS buffer and analyzed by FACS. For FACS analysis, FITC fluorescence value labeled in each cell was measured using a BD LSRFortessa™ flow cytometer, and then the results were analyzed using a FlowJo software, and EC50 value was calculated using a sigma plot program. […]

B1: WM-A1-3389 antibody (antibody, human IgG1, kappa, V domains shown)
VH: QVQLVQSGAEVKRPGSSVKVSCKASGGTFSTYAISWVRQAPGQGLEWMGRIIPFVGTVDYAQKFQDRVTITADKSTNTAYMELSSLRSEDTAVYYCVRDGGRSYFDSWGPGILVTVSS
VL: QFVLTQPPSVSAAPGQDVIISCSGNTSNIGSNLVSWFQQFPETAPKLLIYDNHKRPSGISDRFSGTKSGTSASLAISGLQSEDEADYYCVAWDDSLNGYVFGTGTKVTVLR
notes: Human antibody from a phage library, converted to whole IgG; also called anti-IGSF1 antibody
- EC50: ~69 nM
